Source: patent US20240301071A1 (Alector, published 2024)
Where a chain is given by its changes, count along the chain named.

Experiments:
[1] = molecular target: T1, histidine-tagged human SIRPA v1 (Novoprotein) (human, UniProt P78324 31-370, limits assumed); assay: BLI (Octet), antibody on anti-human IgG Fc sensor, His-huSIRPA in solution, single-curve 1:1 fit
T1 construct: bought, soluble; also called huSIRPA; soluble huSIRPA; not shown: histidine tag
Experimental: (§1) Initial characterization of affinity matured anti-SIRPA antibodies disclosed herein comprised acquiring antigen affinity measurements using bio-layer interferometry (BLI) on a Pall ForteBio Octet RED96 instrument. Immobilized anti-mouse IgG Fc or anti-human IgG Fc antibodies captured murine anti-SIRPA 3F79 antibody and humanized anti-SIRPA 3F79 antibody on biosensors, respectively. Single cycle kinetics were performed with 25 nM huSIRPA [which variant?] or 50 nM huSIRPB 1 flowed over captured antibody 3F79 to record traces. Data analysis was performed using ForteBio Data Analysis Software, version 9.0. Standard kinetic buffer (PBS, 0.100 BSA, 0.02% Tween-20, pH 7.2) was used for the assay and for preparing reagents. […] 50 nM of histidine-tagged human SIRPA vi or human SIRPB1 (Novoprotein, Summit, NJ, USA) were then bound to the captured anti-SIRPA antibody coated surface (200 s association time, 900 s dissociation time). […] Single-curve kinetic analysis was performed using a 1:1 interaction model to extract association and dissociation rate constants (ka and kd, respectively) for each antibody. Affinity constants (KD) were calculated from the ratio kd/ka.

[2] = molecular target: T1, histidine-tagged human SIRPA v1 …; assay: BLI (Octet)
Experimental: as §1

[3] = molecular target: T2, human SIRPA v1 on BWZ cells (BWZ-huSIRPA) (human, UniProt P78324 31-504); assay: flow cytometry titration on BWZ-huSIRPA cells, 4 C
T2 construct: also called BWZ cells overexpressing human SIRPA; BWZ-huSIRPA v1 cells
T2 sequence (P78324 31-504): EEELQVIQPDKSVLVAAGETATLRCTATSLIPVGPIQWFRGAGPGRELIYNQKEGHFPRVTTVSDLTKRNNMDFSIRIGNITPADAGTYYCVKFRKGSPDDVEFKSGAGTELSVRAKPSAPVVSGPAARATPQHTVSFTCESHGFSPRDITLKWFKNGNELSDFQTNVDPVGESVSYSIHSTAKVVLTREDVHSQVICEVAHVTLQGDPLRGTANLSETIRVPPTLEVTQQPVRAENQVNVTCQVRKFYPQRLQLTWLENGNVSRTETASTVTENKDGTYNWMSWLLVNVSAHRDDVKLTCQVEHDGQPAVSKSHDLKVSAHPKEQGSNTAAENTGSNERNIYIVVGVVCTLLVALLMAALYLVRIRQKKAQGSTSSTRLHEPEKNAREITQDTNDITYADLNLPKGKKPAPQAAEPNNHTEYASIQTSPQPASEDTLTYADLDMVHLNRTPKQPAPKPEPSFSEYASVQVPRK
Experimental: After addition of fluorescently labeled secondary antibody and brief washing steps, MFI values as a function of titrated antibody concentration was recorded via FACS analysis. […] Receptor bound antibodies were detected by staining cells with anti-human IgG PE secondary antibody. Curves were fit using nonlinear regression analysis with Graphpad Prism 6 software.

[4] = molecular target: T3, human SIRPA on human macrophages (primary monocyte-derived macrophages; U937 line) (human, UniProt P78324 31-504); assay: cell-based or functional assay
T3 sequence (P78324 31-370): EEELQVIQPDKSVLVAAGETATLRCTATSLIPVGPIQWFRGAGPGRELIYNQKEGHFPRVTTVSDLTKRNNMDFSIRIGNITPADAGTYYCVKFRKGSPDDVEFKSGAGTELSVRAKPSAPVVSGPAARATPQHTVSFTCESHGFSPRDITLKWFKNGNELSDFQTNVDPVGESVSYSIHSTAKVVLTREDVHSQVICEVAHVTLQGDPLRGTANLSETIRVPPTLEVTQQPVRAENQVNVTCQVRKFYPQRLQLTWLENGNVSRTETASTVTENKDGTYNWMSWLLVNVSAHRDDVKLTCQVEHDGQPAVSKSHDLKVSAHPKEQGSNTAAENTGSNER

[5] = molecular target: T3, human SIRPA on human macrophages …; assay: cell-based or functional assay; remark: listed apart in the source
[6] = molecular target: T3, human SIRPA on human macrophages …; assay: cell-based or functional assay; remark: listed apart in the source
[7] = molecular target: T3, human SIRPA on human macrophages …; assay: cell-based or functional assay; remark: listed apart in the source

T1 sequence (P78324 31-370 limits assumed): as the sequence (P78324 31-370) above

B1: 3F9-1 (antibody, human IgG1, V domains shown)
VH: EVQLLESGGGLVQPGGSLRLSCAASGFTFSSYAMSWVRQAPGKGLEWVATISEYGGSYTYYAESVKGRFTISRDNSKNTLYLQMNSLRAEDTAVYYCARPPYDDYYGGFAYWGQGTLVTVSS
VL: DIQLTQSPSSLSASVGDRVTITCRASKSVSSGGYSYMHWYQQKPGKAPKLLIYLASNLESGVPSRFSGSGSGTDFTLTISSVQPEDFATYYCQHNRELPSTFGQGTKLEIK
notes: also called mAb 3F9-1
Kd [1]: 2.09 nM | koff [1]: 0.000222 s⁻¹ | kon [1]: 106000 M⁻¹ s⁻¹

B2: 3F9-2 (antibody, human IgG1, V domains shown)
VH: B1 VH
VL: B1 VL with S100C
notes: also called mAb 3F9-2
Kd [1]: 2.06 nM | koff [1]: 0.000222 s⁻¹ | kon [1]: 108000 M⁻¹ s⁻¹

B3: 3F9-3 (antibody, human IgG1, V domains shown)
VH: B1 VH
VL: B1 VL with S100I
notes: also called mAb 3F9-3
Kd [1]: 4.43 nM | koff [1]: 0.000416 s⁻¹ | kon [1]: 93900 M⁻¹ s⁻¹

B4: 3F9-4 (antibody, human IgG1, V domains shown)
VH: B1 VH
VL: B1 VL with S100P
notes: also called mAb 3F9-4
Kd [1]: 1.79 nM | koff [1]: 0.000203 s⁻¹ | kon [1]: 113000 M⁻¹ s⁻¹

B5: 3F9-5 (antibody, human IgG1, V domains shown)
VH: B1 VH
VL: B1 VL with S100T
notes: also called mAb 3F9-5
Kd [1]: 2.95 nM | koff [1]: 0.000276 s⁻¹ | kon [1]: 93600 M⁻¹ s⁻¹

B6: 3F9-6 (antibody, human IgG1, V domains shown)
VH: B1 VH
VL: B1 VL with S100V
notes: also called mAb 3F9-6
Kd [1]: 1.65 nM | koff [1]: 0.000192 s⁻¹ | kon [1]: 116000 M⁻¹ s⁻¹

B7: 3F9-7 (antibody, human IgG1, V domains shown)
VH: B1 VH
VL: B1 VL with S100A
notes: also called mAb 3F9-7
Kd [1]: 1.81 nM | koff [1]: 0.00018 s⁻¹ | kon [1]: 99200 M⁻¹ s⁻¹

B8: 3F9-8 (antibody, human IgG1, V domains shown)
VH: B1 VH
VL: B1 VL with S100G
notes: also called mAb 3F9-8
Kd [1]: 3.6 nM | koff [1]: 0.000276 s⁻¹ | kon [1]: 76600 M⁻¹ s⁻¹

B9: 3F9-9 (antibody, human IgG1, V domains shown)
VH: B1 VH
VL: B1 VL with S100W
notes: also called mAb 3F9-9
Kd [1]: 3.38 nM | koff [1]: 0.000302 s⁻¹ | kon [1]: 89400 M⁻¹ s⁻¹

B10: 3F9-10 (antibody, human IgG1, V domains shown)
VH: B1 VH with A110R
VL: B1 VL
notes: also called mAb 3F9-10
Kd [1]: 1.51 nM | koff [1]: 0.000201 s⁻¹ | kon [1]: 134000 M⁻¹ s⁻¹

B11: 3F9-11 (antibody, human IgG1, V domains shown)
VH: B1 VH with A110R
VL: B1 VL with S100I
notes: also called mAb 3F9-11
Kd [1]: 1.43 nM | koff [1]: 0.000192 s⁻¹ | kon [1]: 134000 M⁻¹ s⁻¹

B12: 3F9-12 (antibody, human IgG1, V domains shown)
VH: B1 VH with A110R
VL: B1 VL with S100P
notes: also called mAb 3F9-12
fold increase in affinity relative to parental h3F9 [2]: ~10 fold | Kd [1]: 0.429 nM | koff [1]: 5.96e-05 s⁻¹ | kon [1]: 139000 M⁻¹ s⁻¹

B13: 3F9-13 (antibody, human IgG1, V domains shown)
VH: B1 VH with A110R
VL: B1 VL with S100T
notes: also called mAb 3F9-13
Kd [1]: 1.38 nM | koff [1]: 0.000201 s⁻¹ | kon [1]: 146000 M⁻¹ s⁻¹

B14: 3F9-15 (antibody, human IgG1, V domains shown)
VH: B1 VH with A110R
VL: B1 VL with S100A
notes: also called mAb 3F9-15
Kd [1]: 6.28 nM | koff [1]: 0.000362 s⁻¹ | kon [1]: 57600 M⁻¹ s⁻¹

B15: 3F9-16 (antibody, human IgG1, V domains shown)
VH: B1 VH with A110R
VL: B1 VL with S100G
notes: also called mAb 3F9-16
Kd [1]: 1.27 nM | koff [1]: 0.000151 s⁻¹ | kon [1]: 119000 M⁻¹ s⁻¹

B16: 3F9-17 (antibody, human IgG1, V domains shown)
VH: B1 VH with A110R
VL: B1 VL with S100W
notes: also called mAb 3F9-17
EC50 [3]: 0.61 nM | Kd [1]: 1.7 nM | koff [1]: 0.000238 s⁻¹ | kon [1]: 140000 M⁻¹ s⁻¹

B17: 3F9-18 (antibody, human IgG1, V domains shown)
VH: B1 VH with A110Q
VL: B1 VL
notes: also called mAb 3F9-18
fold increase in affinity relative to parental h3F9 [2]: ~10 fold | SIRPA IC50 (nM), downregulation on U937 cells [4]: 2.19 nM | SIRPA Max % DR, U937 cells [4]: 71% | Phagocytosis, fold increase over baseline activity [5]: 1.52 fold | SIRPA IC50 (nM), downregulation on human primary macrophages [5]: 0.0174 nM | SIRPA Max % DR, human primary macrophages [5]: 90% | EC50 [3]: 0.51 nM | Kd [1]: 0.419 nM | koff [1]: 5.74e-05 s⁻¹ | kon [1]: 137000 M⁻¹ s⁻¹

B18: 3F9-19 (antibody, human IgG1, V domains shown)
VH: B1 VH with A110Q
VL: B1 VL with S100I
notes: also called mAb 3F9-19
Kd [1]: 1.29 nM | koff [1]: 0.000181 s⁻¹ | kon [1]: 141000 M⁻¹ s⁻¹

B19: 3F9-20 (antibody, human IgG1, V domains shown)
VH: B1 VH with A110Q
VL: B1 VL with S100P
notes: also called mAb 3F9-20
fold increase in affinity relative to parental h3F9 [2]: ~10 fold | SIRPA IC50 (nM), downregulation on U937 cells [4]: 0.152 nM | SIRPA Max % DR, U937 cells [4]: 75% | Phagocytosis, fold increase over baseline activity [5]: 1.62 fold | SIRPA IC50 (nM), downregulation on human primary macrophages [5]: 0.0283 nM | SIRPA Max % DR, human primary macrophages [5]: 90% | EC50 [3]: 0.49 nM | Kd [1]: 0.85 nM | koff [1]: 0.000128 s⁻¹ | kon [1]: 150000 M⁻¹ s⁻¹

B20: 3F9-21 (antibody, human IgG1, V domains shown)
VH: B1 VH with A110Q
VL: B1 VL with S100T
notes: also called mAb 3F9-21
EC50 [3]: 0.64 nM | Kd [1]: 1.03 nM | koff [1]: 0.000152 s⁻¹ | kon [1]: 148000 M⁻¹ s⁻¹

B21: 3F9-23 (antibody, human IgG1, V domains shown)
VH: B1 VH with A110Q
VL: B1 VL with S100A
notes: also called mAb 3F9-23
fold increase in affinity relative to parental h3F9 [2]: ~10 fold | Kd [1]: 0.539 nM | koff [1]: 9.11e-05 s⁻¹ | kon [1]: 169000 M⁻¹ s⁻¹

B22: 3F9-24 (antibody, human IgG1, V domains shown)
VH: B1 VH with A110Q
VL: B1 VL with S100G
notes: also called mAb 3F9-24
Kd [1]: 1.07 nM | koff [1]: 0.000155 s⁻¹ | kon [1]: 144000 M⁻¹ s⁻¹

B23: 3F9-22-huIgG1 PS (antibody)
heavy: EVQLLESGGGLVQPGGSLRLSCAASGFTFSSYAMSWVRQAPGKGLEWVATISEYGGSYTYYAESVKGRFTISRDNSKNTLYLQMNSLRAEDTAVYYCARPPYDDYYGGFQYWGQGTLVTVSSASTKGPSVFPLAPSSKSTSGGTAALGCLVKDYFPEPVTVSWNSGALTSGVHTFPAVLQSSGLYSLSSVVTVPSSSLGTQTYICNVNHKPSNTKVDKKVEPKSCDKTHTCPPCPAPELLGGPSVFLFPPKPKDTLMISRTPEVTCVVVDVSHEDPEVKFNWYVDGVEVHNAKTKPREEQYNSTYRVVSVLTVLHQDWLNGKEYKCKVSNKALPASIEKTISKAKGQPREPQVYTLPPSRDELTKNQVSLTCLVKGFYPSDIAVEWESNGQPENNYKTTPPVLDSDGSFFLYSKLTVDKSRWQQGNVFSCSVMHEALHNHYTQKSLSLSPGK
light: DIQLTQSPSSLSASVGDRVTITCRASKSVSSGGYSYMHWYQQKPGKAPKLLIYLASNLESGVPSRFSGSGSGTDFTLTISSVQPEDFATYYCQHNRELPVTFGQGTKLEIKRTVAAPSVFIFPPSDEQLKSGTASVVCLLNNFYPREAKVQWKVDNALQSGNSQESVTEQDSKDSTYSLSSTLTLSKADYEKHKVYACEVTHQGLSSPVTKSFNRGEC
IC50 (nM), SIRPA downregulation on human monocyte-derived macrophages [6]: 0.047 nM | Max % DR, SIRPA, human monocyte-derived macrophages [6]: 73.8% | EC50 (nM), phagocytosis of A375 cells by primary human macrophages [7]: 0.114 nM | Max, fold increase in phagocytosis over baseline activity [7]: 2.07 fold

B24: 3F9-25 (antibody, human IgG1, V domains shown)
VH: B1 VH with A110Q
VL: B1 VL with S100W
notes: also called mAb 3F9-25
EC50 [3]: 0.96 nM | Kd [1]: 1.06 nM | koff [1]: 0.000162 s⁻¹ | kon [1]: 153000 M⁻¹ s⁻¹
